These results are taken from paper PMC9426574.

In general, Kd refers to the free concentration of one partner at which half of the binding sites on the other are occupied at equilibrium, for simple one-to-one binding.

For assay [1], the target named is transferrin (Homo sapiens) (UniProt P02787). Particulars: cited from earlier work.
Assay [2] has as its target HRP-labeled human S100A7 (UniProt P31151). As to the kind of experiment: ELISA. Particulars: His-tagged TdfJ on NTA-coated 96-well plate; absorbance at 450 nm; parent: est. 100; read off a plot. A general note: An ELISA detects its analyte on a solid surface through an enzyme-linked reagent.
Assay [3] has as its target His-tagged wild-type TdfJ (purified) (Neisseria gonorrhoeae). In words: SPR; His-tagged TdfJ (89 μg/mL) immobilised on Ni-NTA sensor chip, free NTA blocked with His-tagged streptavidin; S100A7 injected at 1, 10, 50, 100, 500 nM, 20 μL/min; PBS pH 8.0; OpenSPR XT; steady-state, single-site fit (EC50 analysis setting). Background: Surface plasmon resonance follows binding to a sensor surface in real time, without labels.

Assay [4] has as its target His-tagged TdfJ K261P/R262P (purified) (Neisseria gonorrhoeae). The description is as above.

Chain of UniProt P02787 (P02787 20-698): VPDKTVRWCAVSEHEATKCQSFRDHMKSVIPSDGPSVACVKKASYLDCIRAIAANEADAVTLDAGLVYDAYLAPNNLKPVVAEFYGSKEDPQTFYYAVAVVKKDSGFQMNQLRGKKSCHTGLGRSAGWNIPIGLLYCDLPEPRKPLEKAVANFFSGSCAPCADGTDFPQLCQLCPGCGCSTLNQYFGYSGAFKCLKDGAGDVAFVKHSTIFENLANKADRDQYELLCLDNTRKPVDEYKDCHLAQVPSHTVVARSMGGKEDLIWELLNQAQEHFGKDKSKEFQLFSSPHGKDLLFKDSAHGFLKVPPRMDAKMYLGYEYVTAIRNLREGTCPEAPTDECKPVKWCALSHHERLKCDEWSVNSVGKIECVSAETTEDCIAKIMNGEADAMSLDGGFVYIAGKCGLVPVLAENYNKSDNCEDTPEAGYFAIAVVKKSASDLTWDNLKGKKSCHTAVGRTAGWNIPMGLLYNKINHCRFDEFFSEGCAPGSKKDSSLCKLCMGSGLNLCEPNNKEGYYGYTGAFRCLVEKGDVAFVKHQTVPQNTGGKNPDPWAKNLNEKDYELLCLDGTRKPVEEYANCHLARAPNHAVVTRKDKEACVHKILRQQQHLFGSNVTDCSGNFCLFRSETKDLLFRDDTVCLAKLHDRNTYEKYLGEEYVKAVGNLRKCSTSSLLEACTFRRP

On to TbpA (from UniProt Q01996), for which the Kd in assay [1] was 0.01 µM.

Take “His-tagged wild-type TdfJ (purified) K256E”: in assay [2], the percent of parent (% of Wildtype) is 87. “Human S100A7 (from UniProt P31151 1-101) (natural protein)”: in assay [3], the Kd was determined as 0.041 µM, the SPR response at 1 nM S100A7 amounted to 220 RU and the SPR response at 500 nM S100A7 was 900 RU. In assay [4], this substance displayed an SPR response at equilibrium at 500 nM S100A7 of 325 RU. Turning to “His-tagged wild-type TdfJ (purified) K261P; R262P”, the percent of parent (% of Wildtype) in assay [2] worked out at 3. In the case of “His-tagged wild-type TdfJ (purified) R262P”, the percent of parent (% of Wildtype) in assay [2] stood at 79. As to “His-tagged wild-type TdfJ (purified) Q265P”, the percent of parent (% of Wildtype) in assay [2] was determined as 80.

With “His-tagged wild-type TdfJ (purified) L266P”, the percent of parent (% of Wildtype) in assay [2] amounted to 74. As for “His-tagged wild-type TdfJ (purified) Q265P; L266P”, the percent of parent (% of Wildtype) in assay [2] was 20.
